Legend:
HPAC tumor xenografts = assay: Subcutaneous HPAC xenograft efficacy study; format: in vivo, SCID mice
Procedure: (§1) OVCAR5 (FIG. 26A and FIG. 26B), TOV-21 G (FIG. 26C and FIG. 26D), HPAC (FIG. 26E and FIG. 26F), and HeLa (FIG. 26G and FIG. 26H) cells were inoculated on day 0, and immunoconjugate treatments were given on day 6 and 13. PBS control animals were euthanized once tumor volumes exceeded 1000 mm^3. The conjugate was given at a dose of 600 μg/kg DM1, corresponding to an antibody concentration 27.7 mg/kg. Tumor volume (FIG. 26A, FIG. 26C, FIG. 26E, and FIG. 26G) and body weight (FIG. 26B, FIG. 26D, FIG. 26F, and FIG. 26H) of the mice were monitored during the course of the study.
(§2) muDS6-DM 1 activity was further tested on a panel of subcutaneous xenograft models (see FIG. 26). […] OVCAR5 cells and TOV-21 G are ovarian tumor cell lines; HPAC is a pancreatic tumor cell line; HeLa is a cervical tumor cell line. OVCAR5 and TOV-21G cells have low surface CA6 expression; HeLa cells have an intermediate level of surface CA6 expression; HPAC cells have a high CA6 density of surface expression. TOV-21G and HPAC cells are maytansine sensitive; OVCAR5 and HeLa cells are 2-7-fold less maytansine sensitive.
(§3) The 4 cell-lines were grown in vitro, collected, and 1×10^7 cells in a 100 μL of serum free medium were injected under the right shoulder of each mouse (6 mice per model) and allowed to grow for 6 days to an average tumor volume of 57.6±6.7 and 90.2±13.4 mm^3 for the test and control groups respectively of OVCAR5, 147.1±29.6 and 176.2±18.9 mm^3 for the test and control groups respectively of HPAC, 194.3±37.2 and 201.7±71.7 mm^3 for the test and control groups respectively of HeLa, and 96.6±22.8 and 155.6±13.4 mm^3 for the test and control groups respectively of TOV-21G, at which time drug treatment was initiated. For each model three control mice were treated with two weekly doses of PBS and three test mice were treated with two weekly doses of conjugate (600 μg/kg DM1) intravenously. Toxic responses were monitored daily during the treatment and tumor volumes and body weights were monitored throughout the study. […]

OVCAR5 IP tumors = assay: Intraperitoneal OVCAR5 tumor model; format: in vivo, SCID mice; settings: 600 μg/kg DM1 weekly for 2 weeks
Procedure: Tumor cells were injected intraperitoneally on day 0, and immunoconjugate treatments were given on day 6 and 13. Animals were euthanized once body weight loss exceeded 20%.
Human ovarian cancer is largely a disease of the peritoneum. OVCAR5 cells grow aggressively as an intraperitoneal (IP) model in SCID mice forming tumor nodules and producing ascites in a manner similar to human disease. […] OVCAR5 cells were grown in vitro, harvested and 1×10^7 cells in 100 μL of serum free medium were injected intraperitoneally. Tumors were allowed to grow for 6 days at which time treatment was initiated. Mice were treated weekly for 2 weeks with either PBS or DS6-DM1 conjugate at a dose of 600 μg/kg DM1 and monitored for weight loss resulting from peritoneal disease. By day 28, the PBS group of mice had lost greater than 20% body weight and were euthanized. The treated group was sacrificed at day 45 after exceeding 20% body weight loss.

HeLa tumor xenografts = assay: Subcutaneous HeLa xenograft efficacy study; format: in vivo, SCID mice
Procedure: as §1, §2, §3

OVCAR5 tumor xenografts = assay: Subcutaneous OVCAR5 xenograft efficacy study; format: in vivo, SCID mice
Procedure: as §1, §2
The 4 cell-lines were grown in vitro, collected, and 1×10^7 cells in a 100 μL of serum free medium were injected under the right shoulder of each mouse (6 mice per model) and allowed to grow for 6 days to an average tumor volume of 57.6±6.7 and 90.2±13.4 mm^3 for the test and control groups respectively of OVCAR5, 147.1±29.6 and 176.2±18.9 mm^3 for the test and control groups respectively of HPAC, 194.3±37.2 and 201.7±71.7 mm^3 for the test and control groups respectively of HeLa, and 96.6±22.8 and 155.6±13.4 mm^3 for the test and control groups respectively of TOV-21G, at which time drug treatment was initiated. For each model three control mice were treated with two weekly doses of PBS and three test mice were treated with two weekly doses of conjugate (600 μg/kg DM1) intravenously. Toxic responses were monitored daily during the treatment and tumor volumes and body weights were monitored throughout the study. […] The HeLa model had about a 3 week lag period before beginning exponential growth. […] For the TOV-21 G, HPAC, and HeLa models the mice remain tumor-free at day 61. In the OVCAR5 model tumors recurred at about day 45 after tumor inoculation. Thus, muDS6-DM1 treatment in this model results in a tumor growth delay of approximately 34 days. The growth delay is significant as OVCAR5 cells are less maytansine-sensitive and have low CA6 epitope expression. In models where either the CA6 epitope density is higher or the model has greater maytansine sensitivity, the tumor regression is more robust. It is important to note that only 2 doses were administered. […] It is likely that cures could be achieved with additional or higher conjugate doses.

HeLa cells = assay: Flow cytometry binding assay; parameters: species or system human; settings: HeLa
Procedure: (§4) Cells were maintained in a 37° C., 5% CO2 humidified incubator.
(§5) Cells ([…]) were incubated, on ice for 3-4 h, with serially diluted concentrations of the DS6 antibody prepared in FACS buffer (2% goat serum, RPMI) into 96-well plates. The cells were spun down in a table top centrifuge at 1500 rpm for 5 min at 4° C. After removing the media, the wells were then refilled with 150 μl of FACS buffer. The wash step was then repeated. FITC-labeled goat anti-mouse IgG (Jackson Immunoresearch) was diluted 1:100 to FACS buffer and incubated with the cells for 1 h on ice. The plate was covered in foil to prevent photobleaching of the signal. After two washes, the cells were fixed with 1% formaldehyde and analyzed on a flow cytometer.

KB cells = assay: Flow cytometry binding assay; parameters: species or system human; settings: KB
Procedure: as §4, §5
The affinity of the purified huIgG was compared with muDS6 by flow cytometry. In the first set of experiments direct binding to a CA6-expressing cell line, KB, was measured. […] To confirm that the huDS6 versions retain the affinity of muDS6, competitive binding experiments were conducted. The advantage of this format is that the same detection system is used for both murine and human antibodies; that is biotin-muDS6/streptavidin-DTAF.
The binding was conducted essentially as described for FIG. 20 except that KB cells were used rather than CaOv-3 cells.

ZR-75-1 cells = assay: Complement-dependent cytotoxicity (CDC) assay; format: cell-based; settings: 5% human or rabbit serum
Procedure: (§6) To further test the inherent activity of naked muDS6, a complement-dependent cytotoxicity (CDC) assay using muDS6 was conducted. HPAC and ZR-75-1 cells (25000 cells/well) were plated in 96 well plates, in the presence of 5% human or rabbit serum and various dilutions of muDS6, in 200 μl of RHBP media (RPMI-1640, 0.1% BSA, 20 mM HEPES (pH 7.2-7.4), 100 U/ml penicillin and 100 ug/ml streptomycin). The cells were incubated for 2 h at 37° C. Then Alamar Blue (10% of final concentration) reagent (Biosource) was added to the supernatant. The cells were incubated for 5-24 hrs before measuring fluorescence.

HPAC cells = assay: Complement-dependent cytotoxicity (CDC) assay; format: cell-based; settings: 5% human or rabbit serum
Procedure: as §6

[1] = 600 μg/kg DM1, two weekly doses
[2] = 600 μg/kg DM1 i.v., two weekly doses

B1: DS6-DM1: muDS6 antibody modified with SPP and conjugated to the maytansinoid DM1 (conjugate)
VH: QAYLQQSGAELVRSGASVKMSCKASGYTFTSYNMHWVKQTPGQGLEWIGYIYPGNGATNYNQKFKGKATLTADPSSSTAYMQISSLTSEDSAVYFCARGDSVPFAYWGQGTLVTVSA
VL: QIVLTQSPAIMSASPGEKVTITCSAHSSVSFMHWFQQKPGTSPKLWIYSTSSLASGVPARFGGSGSGTSYSLTISRMEAEDAATYYCQQRSSFPLTFGAGTKLELKR
- body weight (HPAC tumor xenografts; [1]): no weight loss was observed
- tumor status at day 61 (HPAC tumor xenografts; [1]): tumor-free
- tumor regression (HPAC tumor xenografts; [2]): complete tumor regression in all mice
- tumor growth delay (in words) (OVCAR5 IP tumors): able to delay tumor growth
- visible signs of toxicity (OVCAR5 IP tumors): no visible signs of toxicity
- day of sacrifice after exceeding 20% body weight loss (OVCAR5 IP tumors; PBS group day 28): 45 days
- body weight (HeLa tumor xenografts; [1]): no weight loss was observed
- tumor status at day 61 (HeLa tumor xenografts; [1]): tumor-free
- tumor regression (HeLa tumor xenografts; [2]): complete tumor regression in all mice
- body weight (OVCAR5 tumor xenografts; [1]): no weight loss was observed
- day of tumor recurrence after tumor inoculation (OVCAR5 tumor xenografts; [1]): ~45 days
- tumor growth delay (OVCAR5 tumor xenografts; [1]): approximately 34 days
- tumor regression (OVCAR5 tumor xenografts; [2]): complete tumor regression in all mice

B2: DS6: murine anti-CA6 monoclonal antibody DS6 (ATCC deposit number PTA-4449) (antibody, V domains shown)
VH: B1 VH
VL: B1 VL
- MMF (average maximum relative mean fluorescence) (HeLa cells): 242.50
- MMF (average maximum relative mean fluorescence) (KB cells): 119.56
- CDC mediated effect (ZR-75-1 cells; listed as Murine DS6): no effect
- CDC mediated effect (ZR-75-1 cells; listed as muDS6): no CDC mediated effect
- CDC mediated effect (HPAC cells; listed as Murine DS6): no effect
- CDC mediated effect (HPAC cells; listed as muDS6): no CDC mediated effect

Reference: patent US8987424B2, “CA6 antigen-specific cytotoxic conjugate and methods of using the same” (ImmunoGen, Inc., priority 2003, dated 2015)
